Patent US20210079109A1 (Regeneron, published 2021)

T1: human CD63 (human, UniProt P08962 2-238)
T1 construct: stably transfected in NIH3T3/hCD63; The cell line is named under assay; also called hCD63
T1 sequence: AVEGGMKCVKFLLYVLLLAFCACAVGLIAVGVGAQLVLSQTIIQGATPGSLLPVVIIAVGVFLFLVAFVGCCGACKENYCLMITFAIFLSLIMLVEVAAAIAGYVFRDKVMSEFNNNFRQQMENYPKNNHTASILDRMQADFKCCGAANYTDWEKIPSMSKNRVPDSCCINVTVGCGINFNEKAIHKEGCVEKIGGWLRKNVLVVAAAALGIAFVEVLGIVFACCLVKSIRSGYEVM

B1: H2M12452N (antibody, V domains shown)
VH: QVQLQEAGPGLVKPSETLSLTCIVSGGSISGFYWNWIRQPPGKGLEWIGYFLYSGTIDYNPSLKSRVTISVDTSKNQFFLKLSFVTAADTAVYYCVRMGLGANAFDIWGRGTMVTVSS
VL: EIVLTQSPGTLSLSPGERATLSCRASQTVSRSFLAWYQQKPGQAPRLLIYGPSSRATGIPDRFSGSGSGTDFTLTISRLEPEDFAVYYCQQYGNSPWTFGQGTKVEIK
notes: also called H2aM12452N
B2: H1M12362N (antibody, V domains shown)
VH: QVQLVESGGGLVKPGGSLRLSCAASGFIFSDYYINWIRQAPGKGLEWVSYTSSSGSTTYYEDSVKGRFTMSRDNARNLVYLQMNSLRAEDTAAYYCVRDLRYNDGLDVWGQGTTVTVSS
VL: DILLTQSPSSLSASVGDRVTITCRASQSIRTYLNWYQQKPGRAPKLLVYAASSLQSGVPSRFSGSGSGTDFTLTISSLQPEDFATYFCQQSYDNPPITFGQGTRLAIK
B3: H2M13022N (antibody, V domains shown)
VH: QVQLVESGGGLVQPGGSLRLSCAASGFIFGDYYINWIRQAPGKGLQWVSYTSSSGSTTYYEDSVKGRFTMSRDNAKNLVYLQMNSLRAEDTAAYYCVRDLRYNDGLDVWGQGTTVIVSS
VL: DILLTQSPSSLSAFVGDRVTITCRASQNIRTYLNWYQQKPGRAPKLLVYAASTLQSGVPSRFSGSGSGTDFTLTISSLQPEDFASYFCQQSYDNPPITFGQGTRLAIK
notes: also called H2bM13022N
B4: H3M12361N (antibody, V domains shown)
VH: EVQLVESGGGLVQPGRSLRLSCTASGFTFGDHAMHWVRQAPGKGLEGVSSINWNSGIIGYAESVKGRFTISRDNAKNSLYLQMNNLRAEDTGLYYCARDIGVATLGIDYWGQGTLVTVSS
VL: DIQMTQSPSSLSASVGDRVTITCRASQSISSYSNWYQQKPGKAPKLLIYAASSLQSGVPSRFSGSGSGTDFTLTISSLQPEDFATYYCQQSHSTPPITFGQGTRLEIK
B5: H4H11996P2 (antibody, V domains shown)
VH: QVQLVESGGGLVKPGGSLRLSCAASGFIFTDYFMNWIRQAPGKGLEWVSYISNSGNILYYADSVKGRFTISRDNAKASLYLQMSSLKAEDTAVYYCVRDPRMFYGMDVWGQGTTVTVSS
VL: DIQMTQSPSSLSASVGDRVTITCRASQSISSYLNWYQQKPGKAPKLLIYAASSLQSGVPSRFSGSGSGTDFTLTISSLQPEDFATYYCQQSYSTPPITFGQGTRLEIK

How the values were obtained:
[1] = target: T2, recombinant human CD63 extracellular loop 2 expressed with a C-terminal human Fc tag (human); assay: SPR Biacore, mAb captured, 25C
T2 construct: also called hCD63 EC loop 2-hFc; human CD63 EC loop 2-Fc
T2 sequence (chain, as listed by the source limits assumed): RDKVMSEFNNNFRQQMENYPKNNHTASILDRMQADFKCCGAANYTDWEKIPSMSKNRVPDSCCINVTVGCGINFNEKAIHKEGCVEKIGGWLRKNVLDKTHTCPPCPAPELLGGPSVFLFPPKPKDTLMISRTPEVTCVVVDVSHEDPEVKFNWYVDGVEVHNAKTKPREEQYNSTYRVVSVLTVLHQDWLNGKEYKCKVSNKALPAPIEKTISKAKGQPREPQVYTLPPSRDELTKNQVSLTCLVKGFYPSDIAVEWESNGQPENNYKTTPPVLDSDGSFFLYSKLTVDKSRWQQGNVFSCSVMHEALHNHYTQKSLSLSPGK
Procedure: (§1) Equilibrium dissociation constants (KD) for different CD63 (EC2) loop reagents binding to purified anti-CD63 monoclonal antibodies were determined using a real-time surface plasmon resonance based Biacore T200 biosensor or Biacore 2000 biosensor. All binding studies were performed in 10 mM HEPES, 150 mM NaCl, 3 mM EDTA, and 0.05% v/v Surfactant Tween-20, pH 7.4 (HBS-ET) running buffer at 25° C. and 37° C. The Biacore CMS sensor chip surface was first derivatized by amine coupling with either a rabbit anti-mouse Fc specific polyclonal antibody (GE Healthcare, Cat #BR100838) or an anti-human Fab kit (GE Healthcare, Cat #28958325) to capture anti-CD63 monoclonal antibodies. […] The association rate (Kₐ) and dissociation rate (kd) were determined by fitting the real-time binding sensorgrams to a 1:1 binding model with mass transport limitation using Scrubber 2.0c curve-fitting software. Binding dissociation equilibrium constant (KD) and dissociative half-life (t½) were calculated from the kinetic rates as: […]
(§2) Binding kinetics parameters for human CD63 EC loop 2 protein binding to different anti-CD63 monoclonal antibodies of the invention at 25° C. and 37° C. are shown in Tables 6 through 9.

[2] = target: T3, recombinant human CD63 extracellular loop 2 expressed with a C-terminal Myc-Myc-hexahistidine (human); assay: SPR Biacore, mAb captured, 25C
T3 construct: also called hCD63 EC loop 2-MMH; human CD63 EC loop 2-MMH
T3 sequence (chain, as listed by the source limits assumed): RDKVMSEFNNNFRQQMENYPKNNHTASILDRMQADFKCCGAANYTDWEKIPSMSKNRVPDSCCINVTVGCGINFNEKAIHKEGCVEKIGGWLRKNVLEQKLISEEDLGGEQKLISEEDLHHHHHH
Procedure: as §1, §2

[3] = target: T2, recombinant human CD63 extracellular …; assay: SPR Biacore, mAb captured, 37C
Procedure: as §1, §2

[4] = target: T3, recombinant human CD63 extracellular …; assay: SPR Biacore, mAb captured, 37C
Procedure: as §1, §2

human CD63 [5] = target: T1, human CD63; assay: ECL, NIH3T3/hCD63 cells
Procedure: (§3) LNCAP cells were determined to have a lower human CD63 copy number than U87MG cells. Non-transfected NIH3T3 cells, which have no detectable expression of human CD63 by fluorescence activated cell sorting (FACS), were included as a negative control.
(§4) Briefly, cell lines were rinsed once in PBS buffer without Ca²⁺/Mg²⁺ and incubated for 10 minutes at 37° C. with Enzyme Free Cell Dissociation Solution (Millipore, Cat #S-004-C) to detach the cells. Cells were then washed once with PBS with Ca²⁺/Mg²⁺ and counted with a Cellometer™ Auto T4 cell counter (Nexcelom Bioscience, LLC). Approximately 2.0×10⁴ NIH3T3/hCD63, LNCAP, U87MG or NIH3T3 cells were seeded separately onto 96-well carbon electrode plates […]) and were then incubated for one hour at 37° C. Nonspecific binding sites were blocked with 2% BSA (w/v) in PBS with Ca²⁺/Mg²⁺ for one hour at room temperature (RT). Solutions containing anti-CD63 antibodies or isotype control antibodies at a range of concentrations (1.7 pM to 100 nM) in 0.5% BSA (w/v) in PBS with Ca²⁺/Mg²⁺, as well as control buffer alone, were then added in duplicate to the plate-bound NIH3T3/hCD63, LNCAP, U87MG or NIH3T3 cells and incubated for one hour at RT. Plates were subsequently washed to remove unbound antibodies using an AquaMax2000 plate washer with a cell washing head (MDS Analytical Technologies). […] Plates were washed and then incubated with Read Buffer (MSD, Cat #R92TD-2) according to the manufacturer's instructions. Luminescent signals were measured using a SECTOR Imager (MSD).

human CD63 [6] = target: T1, human CD63; assay: ECL, U87MG cells
Procedure: as §3, §4

human CD63 [7] = target: T1, human CD63; assay: ECL, LNCAP cells
Procedure: as §3, §4

Binder | 100 nM Ag Bound (RU) [1] [RU] | Kd [1] [nM] | koff [1] [s⁻¹] | kon [1] [M⁻¹ s⁻¹] | t1/2 [1] [min] | 100 nM Ag Bound (RU) [2] [RU] | Kd [2] [nM] | koff [2] [s⁻¹] | kon [2] [M⁻¹ s⁻¹] | t1/2 [2] [min] | 100 nM Ag Bound (RU) [3] [RU] | Kd [3] [nM] | koff [3] [s⁻¹] | kon [3] [M⁻¹ s⁻¹] | t1/2 [3] [min] | 100 nM Ag Bound (RU) [4] [RU] | Kd [4] [nM] | koff [4] [s⁻¹] | kon [4] [M⁻¹ s⁻¹] | t1/2 [4] [min] | further results
B1 | 91 | 1.87 | 0.000228 | 122000 | 51 | 35 | 7.33 | 0.000596 | 81300 | 19 | 104 | 1.1 | 0.000857 | 779000 | 13 | 34 | 6.98 | 0.00269 | 385000 | 4 | EC50 (human CD63 [5]): 0.61 nM; binding ratio at 3.7 nM vs NIH3T3 (human CD63 [5]): 593 fold; EC50 (human CD63 [6]): 2 nM; binding ratio at 3.7 nM vs NIH3T3 (human CD63 [6]): 260 fold; EC50 (human CD63 [7]): 0.74 nM; binding ratio at 3.7 nM vs NIH3T3 (human CD63 [7]): 37 fold
B2 | 125 | 0.84 | 0.000399 | 477000 | 29 | 51 | 12.7 | 0.00144 | 113000 | 8 | 118 | 0.977 | 0.000669 | 685000 | 17 | 32 | 19.5 | 0.0072 | 369000 | 2 | EC50 (human CD63 [5]): 0.63 nM; binding ratio at 3.7 nM vs NIH3T3 (human CD63 [5]): 283 fold; EC50 (human CD63 [6]): 0.56 nM; binding ratio at 3.7 nM vs NIH3T3 (human CD63 [6]): 174 fold; EC50 (human CD63 [7]): 0.57 nM; binding ratio at 3.7 nM vs NIH3T3 (human CD63 [7]): 16 fold
B3 | 117 | 0.61 | 0.00028 | 460000 | 41 | 48 | 13 | 0.00132 | 102000 | 9 | 107 | 1.01 | 0.000562 | 557000 | 21 | 31 | 21.5 | 0.00671 | 311000 | 2 | EC50 (human CD63 [5]): 0.45 nM; binding ratio at 3.7 nM vs NIH3T3 (human CD63 [5]): 95 fold; EC50 (human CD63 [6]): 0.85 nM; binding ratio at 3.7 nM vs NIH3T3 (human CD63 [6]): 71 fold; EC50 (human CD63 [7]): 0.32 nM; binding ratio at 3.7 nM vs NIH3T3 (human CD63 [7]): 8 fold
B4 | 83 | 0.299 | 0.000132 | 441000 | 87 | 43 | 3.12 | 0.000805 | 258000 | 14 | 97 | 0.568 | 0.00037 | 651000 | 31 | 39 | 5.85 | 0.00289 | 495000 | 4 | EC50 (human CD63 [5]): 0.81 nM; binding ratio at 3.7 nM vs NIH3T3 (human CD63 [5]): 243 fold; EC50 (human CD63 [6]): 1.3 nM; binding ratio at 3.7 nM vs NIH3T3 (human CD63 [6]): 111 fold; EC50 (human CD63 [7]): 1.1 nM; binding ratio at 3.7 nM vs NIH3T3 (human CD63 [7]): 19 fold
B5 | 257 | 0.292 | 0.000135 | 461000 | 86 | 61 | 84.9 | 0.014 | 165000 | 0.8 | 294 | 0.264 | 0.000142 | 538000 | 81 | 46 | 361 | 0.0389 | 108000 | 0.3 | EC50 (human CD63 [5]): 0.98 nM; binding ratio at 3.7 nM vs NIH3T3 (human CD63 [5]): 188 fold; EC50 (human CD63 [6]): 8.1 nM; binding ratio at 3.7 nM vs NIH3T3 (human CD63 [6]): 57 fold; EC50 (human CD63 [7]): 4.4 nM; binding ratio at 3.7 nM vs NIH3T3 (human CD63 [7]): 7 fold
